Laboratory results from article PMC3195437 (Biochemical Journal, 2011).

Target: the molecule itself
Assay: SEC

Protein | stoichiometry N
rHtrASA (recombinant, N-terminally truncated, proteolytically inactive HtrA of Synechocystis sp. PCC 6803, Ser296 replaced by alanine) (enzyme, UniProt P73354 94-452, looked up) SIAPANESLATNLQSRLSPREPSNFVVDVVESTGPAVVRINAQKTVKSQVPQAFNDPFLQRFFGSQMPPMPNERVQRGTGSGFIVSNDGKIFTNAHVVDGADEVTVTLKDGRSFPGRVMGSDPSTDVAVVKIEAGDLPTVALGDSDHLQVGEWAIAIGNPLGLDNTVTTGILSATGRRSADIGVPDKRVEFIQTDAAINPGNAGGPLLNADGQVIGMNTAIIQNAQGIGFAIPINKAQEIAQQLIATGKVEHAYLGIQMVTMTPELQSQIRQETGMNIPVDKGVVIMQVMPNSPAAIAKLEQGDVLQSLQGQPVENAEQVQSLVGKLAVGDEVELGILRNGQQQNLTVTIGALPSAPPQ | 3
rHhoBSA (recombinant, N-terminally truncated, proteolytically inactive HhoB of Synechocystis sp. PCC 6803, Ser258 replaced by alanine) (enzyme, UniProt P73940 51-416, looked up) SLTPAPVESNYRSALPLTLPRSAQDDQELNFIARAVQKIGPAVVRIDSERTAVSQGGPMGDQPFFRRFFGEEMPPNPDPREQGTGSGFILSSDGEVLTNAHVVEGASTVKVTLKDGSVLEGKVMGIDTMTDVAVVKVEAENLPVVEIGQSDRLQPGEWAIAIGNPLGLDNTVTVGIISALGRSSSEVGVPDKRVRFIQTDAAINPGNAGGPLLNAKGEVIGVNTAIRADAQGLGFAIPIQTAQNVAENLFTKGKMEHPYLGIHMVTLTPEMTKQLRTSGELPAGVTADTGVLIIQVSPGSPAAQAGLAPGDIILEVGGMGVKTATDVQERVEVSQIGEPLAIAVKRGQKPQMMAVRPGPFPEDLGQ | 3
